What was measured:
TIN2 = TIN2 (UniProt Q9BSI4); assay: biotin-peptide pull-down from nuclear extract, MS; conditions: reference: unphosphorylated peptide (TRF2-CTRL); sites S410
[1] = target: TRF2-CTRL peptide labelled at the N-terminus with carboxyfluorescein (FAM) (human); assay: fluorescence polarisation; fluorescence anisotropy; 3 nM FAM-peptide titrated with TIN2 to 500 nM; 50 mM NaCl, 50 mM phosphate buffer pH 7.0, 25 C
[2] = target: TRF2-pS410 peptide labelled at the N-terminus with carboxyfluorescein (FAM) (human); assay: as above
TRF2-pS410 peptide labelled at the N-terminus with carboxyfluorescein (FAM) (human), sequence (Q15554 401-420): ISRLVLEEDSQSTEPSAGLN

| Substance | binding against the reference (TIN2) | Kd [1] [nM] | Kd [2] [nM] |
| --- | --- | --- | --- |
| TRF2 (from UniProt Q15554) pS410 peptide | stronger |  |  |
| purified human TIN2 (from UniProt Q9BSI4 1-451) (natural protein) |  | 240 | 180 |

Reference: PMC9943673
